# Laboratory results: article PMC6630058 (Biotechnology Reports, 2019)
# B1: scFvSG15(VLT8P)-AP conjugate (scFvSG15-AP with T8P in FR-1 of the kappa VL) (scFv, V domains shown)
# VH: QVQLQQSGAELVRPGVSVKISCKGSGYTFTDYGMHWVKQSHAKSLEWIGIISTYSGDASYNQKFKGKATMTVDKSSSTAYMELARLTSEDSAIYYCARSSTWYYFDYWGQGTTLTVSS
# VL: DIQVTQTPSSLSASLGDRVTISCRASQDISNYLNWYQQKPDGTVKLLIYYTSRLHSGVPSRFSGSGSGTDYSLTISNLEQEDIATYFCQQGNTLPYTFGGGTKLEIK
# Biological target: Toxoplasma gondii major surface antigen 1 (SAG1) (Toxoplasma gondii, RH strain, UniProt P13664)
# Test: far-Western, overlay or dot blot
# Toxoplasma gondii major surface antigen 1 (SAG1), sequence (P13664 48-336): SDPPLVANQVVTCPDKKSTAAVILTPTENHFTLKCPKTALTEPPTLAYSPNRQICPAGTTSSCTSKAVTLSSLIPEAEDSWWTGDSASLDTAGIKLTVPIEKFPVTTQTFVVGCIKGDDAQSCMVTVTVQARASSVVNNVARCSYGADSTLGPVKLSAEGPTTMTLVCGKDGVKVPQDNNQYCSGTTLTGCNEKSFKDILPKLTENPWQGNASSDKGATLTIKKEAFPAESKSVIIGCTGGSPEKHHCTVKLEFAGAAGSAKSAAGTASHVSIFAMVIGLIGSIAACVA
binder,measurement,value
B1,binding result,binds
